Test results reported in article PMC6328613.

Columns and labels:
MBP-Scyl1 [1] = target: MBP-Scyl1 (UniProt Q96KG9); experiment: SPR; ProteOn XPR36, GLH chip; cross-linked anti-MBP antibody, MBP-Scyl1 captured (3000 RU), GST-GORAB variants as analyte at 30 nM, 100 µL/min, 120 s association, 600 s dissociation; 150 mM NaCl, 10 mM HEPES, 0.02% Tween-20, pH 7.4
MBP-Scyl1 [2] = target: MBP-Scyl1 (UniProt Q96KG9)

Chain of UniProt Q96KG9 (Q96KG9 whole entry): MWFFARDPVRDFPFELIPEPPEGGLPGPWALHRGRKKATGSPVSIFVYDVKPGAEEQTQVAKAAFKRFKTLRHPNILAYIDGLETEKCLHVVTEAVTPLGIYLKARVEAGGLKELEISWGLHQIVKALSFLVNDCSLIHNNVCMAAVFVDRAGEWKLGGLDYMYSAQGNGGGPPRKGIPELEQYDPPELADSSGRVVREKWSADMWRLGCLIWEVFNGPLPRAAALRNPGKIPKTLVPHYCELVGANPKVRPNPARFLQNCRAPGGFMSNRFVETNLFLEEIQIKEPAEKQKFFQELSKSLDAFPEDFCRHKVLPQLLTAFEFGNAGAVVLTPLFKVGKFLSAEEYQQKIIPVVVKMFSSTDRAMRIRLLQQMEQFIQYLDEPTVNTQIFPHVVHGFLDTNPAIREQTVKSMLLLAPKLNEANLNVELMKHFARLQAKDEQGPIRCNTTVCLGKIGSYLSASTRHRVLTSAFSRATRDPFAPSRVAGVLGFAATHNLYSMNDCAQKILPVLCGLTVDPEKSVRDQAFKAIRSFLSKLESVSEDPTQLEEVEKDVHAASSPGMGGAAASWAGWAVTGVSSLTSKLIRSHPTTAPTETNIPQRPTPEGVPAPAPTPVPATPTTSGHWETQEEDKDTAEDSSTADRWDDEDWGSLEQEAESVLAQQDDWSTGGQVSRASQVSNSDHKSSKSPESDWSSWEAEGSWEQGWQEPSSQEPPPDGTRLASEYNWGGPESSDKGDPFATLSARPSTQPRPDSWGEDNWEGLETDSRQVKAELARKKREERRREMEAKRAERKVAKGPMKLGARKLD

Row | Kd (MBP-Scyl1 [1]) | recruitment of coatomer (δ-COP, ε-COP) to liposomes in the presence of myr-Arf1, with MBP-Scyl1 against MBP-IPIP27A (MBP-Scyl1 [2]) | Substance
1 | 0.52 nM |  | GST-GORAB (natural protein)
2 | 0.52 nM |  | GST-GORAB K190del (natural protein)
3 |  | 2 fold | recombinant mouse coatomer isotype γ2ζ1 (from UniProt Q9QXK3 1-871; P61924 1-177; Q5XJY5 1-511; O89079 1-308; O55029 1-905) (complex)
